{
  "source": "patent US20160282364A1",
  "about": "(published 2016)",
  "key": {"31": {"target": "31", "experiment": "fluorescence polarization; without insulin"}, "31 + insulin": {"target": "31 + insulin", "experiment": "fluorescence polarization; Kapp, with 2.5 uM insulin"}},
  "data": [
    {"binder": "IDE (enzyme) MNNPAIKRIGNHITKSPEDKREYRGLELANGIKVLLISDPTTDKSSAALDVHIGSLSDPPNIAGLSHFLQHMLFLGTKKYPKENEYSQFLSEHAGSSNAFTSGEHTNYYFDVSHEHLEGALDRFAQFFLSPLFDESAKDREVNAVDSEHEKNVMNDAWRLFQLEKATGNPKHPFSKFGTGNKYTLETRPNQEGIDVRQELLKFHSAYYSSNLMAVVVLGRESLDDLTNLVVKLFSEVENKNVPLPEFPEHPFQEEHLKQLYKIVPIKDIRNLYVTFPIPDLQKYYKSNPGHYLGHLIGHEGPGSLLSELKSKGWVNTLVGGQKEGARGFMFFIINVDLTEEGLLHVEDIILHMFQYIQKLRAEGPQEWVFQELKDLNAVAFRFKDKERPRGYTSKIAGILHYYPLEEVLTAEYLLEEFRPDLIEMVLDKLRPENVRVAIVSKSFEGKTDRTEEWYGTQYKQEAIPDEVIKKWQNADLNGKFKLPTKNEFIPTNFEILPLEKEATPYPALIKDTAMSKLWFKQDDKFFLPKANLNFEFFSPFAYVDPLHSNMAYLYLELLKDSLNEYAYAAELAGLSYDLQNTIYGMYLSVKGYNDKQPILLKKIIEKMATFEIDEKRFEIIKEAYMRSLNNFRAEQPHQHAMYYLRLLMTEVAWTKDELKEALDDVTLPRLKAFIPQLLSRLHIEALLHGNITKQAALGIMQMVEDTLIEHAHTKPLLPSQLVRYREVQLPDRGWFVYQQRNEVHNNSGIEIYYQTDMQSTSENMFLELFAQIISEPAFNTLRTKEQLGYIVFSGPRRANGIQGLRFIIQSEKPPHYLESRVEAFLITMEKSIEDMTEEAFQKHIQALAIRRLDKPKKLSAESAKYWGEIISQQYNFDRDNTEVAYLKTLTKEDIIKFYKEMLAVDAPRRHKVSVHVLAREMDSNPVVGEFPAQNDINLSQAPALPQPEVIQNMTEFKRGLPLFPLVKPHINFMAAKL", "values": [
      {"measurement": "Kd", "setting": "31", "result": 42, "unit": "nM"},
      {"measurement": "Kd", "setting": "31 + insulin", "result": 280, "unit": "nM"}
    ]}
  ]
}
